# Measured values: publication doi:10.1101/2024.08.25.607996 (bioRxiv, 2024)
# B1: feline APN ectodomain without the Fc fusion (dimer) (domain or fragment)
# chain: DQSKPWNVYRLPKTLIPDSYNVTLRPYLTPNNKGLYVFTGTNIVRFTCKESTNIVIIHSKRLNYTSHQGHMVALSGVGGFHPQPVIVRTELVELTEYLVVHLQEPLVAGRQYEMNSEFQGELADDLAGFYRSEYMENGVKKVLATTHMQATEARKSFPCFDEPAMKATFNITIIHPNNLVALSNMLPRGPSVPFGEDPTWKVTEFETTPIMSTYLLAYIVSEFSYVETRAPSGVLIRIWARPSAINQGHGDYALKVTGPILDFFSQHYDTPYPLNKSDQIALPDFNAGAMENWGLVTYRESALLYDRQSSSSGNQERVVTVIAHELAHQWFGNLVTLEWWNDLWLNEGFASYVEYLGADFAEPTWNLKDLMVLNDVYRVMAVDALASSHPLSTPASEINTPAQISEVFDSISYSKGASVLRMLSNFLTEDLFKMGIASYLHTYKYGNTIYLNLWEHLQQVVDKQPTIKLPDTVSAIMDRWILQMGFPVITVDTQTGTISQQHFLLDPQSVVTRPSQFNYLWIVPISSVRSGSPQAHYWLPGVEKAQNDLFKTTANDWVLLNLNVTGYYLVNYDNENWKKIQTQLQTDLSVIPVINRAQVIHDAFNLASAQKVPVTLALNNTLFLIQETEYMPWQAALSSLSYFKLMFDRSEVYGPMKRYLKKQVTPLFNHFERVTKNWTDHPQTLMDQYSEINAVSTACSYGVPECEKLAATLFAQWKKNPQNNPIHPNLRSTVYCNAIAQGGEEEWNFVWEQFLKAELVNEADKLRGALACSNQVWILNRFLSYTLDPNLIRKQDVTSTLSSISSNVVGQTLVWDFVQSNWKKLFQDYGTGSFSFSNLIQAVTRRFSTEFELQQLEQFKKNNMDTGFGSATRALEQALEKTKANLKWVKENKDVVLRWFTENS
# Molecular target: the molecule itself
# Experiment: cryo-EM structure
protein,measurement,value
B1,stoichiometry N,2
